Biological target: PcaLOOL12 (loosenin from Phanerochaete carnosa) produced in Pichia pastoris with a C-terminal His6-tag (Phanerochaete carnosa)
Experiment: SEC-SAXS

PcaLOOL12 (loosenin from Phanerochaete carnosa) produced in Pichia pastoris with a C-terminal His6-tag (natural protein)
stoichiometry N: 2
